Test [1] addresses T1, HPV16 E6 peptide on HLA-A*02:01 (human).
T1 peptide: TIHDIILECV
The experiment in a line: peptide titration on APCs, E:T 1:1, overnight, intracellular IFN-γ in CD4+ TCR-T cells; full-length, on cells.

Test [2] concerns the target T1, HPV16 E6 peptide on HLA-A*02:01. The experiment in a line: peptide titration on APCs, E:T 1:1, overnight, intracellular IFN-γ in CD8+ TCR-T cells; full-length, on cells.
For test [3] the target is unchanged. Put plainly: peptide titration on T2 cells, E:T 1:1, overnight, intracellular IFN-γ; full-length, on cells.

B1: E203 TCR (TCR, V domains shown)
Valpha: LAKTTQPISMDSYEGQEVNITCSHNNIATNDYITWYQQFPSQGPRFIIQGYKTKVTNEVASLFIPADRKSSTLSLPRVSLSDTAVYYCLALSMDSSYKLIFGSGTRLLVRP
Vbeta: DAGVIQSPRHEVTEMGQEVTLRCKPISGHDYLFWYRQTMMRGLELLIYFNNNVPIDDSGMPEDRFSAKMPNASFSTLKIQPSEPRDSAVYFCASSLAQRSAPEAFFGQGTRLTVV
B1: the EC50 of peptide worked out at 0.0176 µg/mL in test [1] and 0.00104 µg/mL in test [2].

B2: E205 TCR (TCR, V domains shown)
Valpha: TQLLEQSPQFLSIQEGENLTVYCNSSSVFSSLQWYRQEPGEGPVLLVTVVTGGEVKKLKRLTFQFGDARKDSSLHITAAQPGDTGLYLCAGVSARLMFGDGTQLVVKP
Vbeta: SAVISQKPSRDICQRGTSLTIQCQVDSQVTMMFWYRQQPGQSLTLIATANQGSEATYESGFVIDKFPISRPNLTFSTLTVSNMSPEDSSIYLCSAVGGPKVPGAEAFFGQGTRLTVV
In the case of B2, the figures for the EC50 of peptide in test [1] and in test [2] were 0.0104 µg/mL and 0.000917 µg/mL, respectively.

B3: E202 TCR (TCR, V domains shown)
Valpha: AQTVTQSQPEMSVQEAETVTLSCTYDTSESDYYLFWYKQPPSRQMILVIRQEAYKQQNATENRFSVNFQKAAKSFSLKISDSQLGDAAMYFCAYRDSRGSTLGRLYFGRGTQLTVWP
Vbeta: DVKVTQSSRYLVKRTGEKVFLECVQDMDHENMFWYRQDPGLGLRLIYFSYDVKMKEKGDIPEGYSVSREKKERFSLILESASTNQTSMYLCASSLWGRKNTEAFFGQGTRLTVV
B3 had an EC50 of peptide in test [3] of 0.045 µg/mL.

The record behind these values is US20230077100A1 (published 2023).
